From article PMC4432619
Values belong to the substance of their own block, whether it stands above or below them.

Columns and labels:
[1] = biological target: FMNL1NCC (FMNL1 1–458, GBD-FH3-CC) (human) (UniProt O95466); experiment: SEC; analytical gel filtration, Superdex S200 (10/300 GL), typically 100 μg of each protein, 20 mM Tris/HCl pH 8.0, 150 mM NaCl, 1 mM DTE (2.5 mM MgCl2 with Rho GTPases), 0.5 ml/min, 293 K
[2] = biological target: FMNL2 1–489 (N-terminal FMNL2 construct including the coiled coil domain) (human) (UniProt Q96PY5); experiment: as above
[3] = biological target: FMNL2N(S171DD) (residues 1–379) (human) (UniProt Q96PY5); experiment: ITC; GppNHp-loaded GTPase at 500 μM injected from the syringe into 50 μM FMNL in the cell; 20 mM Tris/HCl pH 8, 150 mM NaCl, 5 mM MgCl2, 1 mM DTE, 298 K; MicroCal iTC200
[4] = biological target: FMNL1NCC (FMNL1 1–458, GBD-FH3-CC) (human) (UniProt O95466); experiment: as above
Target sequence in this assay (O95466 1-458): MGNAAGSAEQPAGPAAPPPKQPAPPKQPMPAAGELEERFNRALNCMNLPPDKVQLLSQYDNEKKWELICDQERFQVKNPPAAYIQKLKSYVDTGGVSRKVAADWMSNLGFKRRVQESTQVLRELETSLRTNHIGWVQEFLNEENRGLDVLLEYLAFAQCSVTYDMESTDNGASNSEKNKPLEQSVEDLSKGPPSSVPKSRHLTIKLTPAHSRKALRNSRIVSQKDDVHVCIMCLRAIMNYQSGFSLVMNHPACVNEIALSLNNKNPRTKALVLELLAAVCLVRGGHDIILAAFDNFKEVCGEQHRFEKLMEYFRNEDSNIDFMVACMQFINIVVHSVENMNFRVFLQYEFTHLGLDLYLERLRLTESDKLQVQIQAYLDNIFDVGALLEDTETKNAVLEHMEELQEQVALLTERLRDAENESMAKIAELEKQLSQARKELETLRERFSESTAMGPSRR

[5] = biological target: FMNL1N (FMNL1 2–385, GBD–FH3) (human) (UniProt O95466); experiment: as above
Chain of FMNL1N (FMNL1 2–385, GBD–FH3) (human) (O95466 2-385): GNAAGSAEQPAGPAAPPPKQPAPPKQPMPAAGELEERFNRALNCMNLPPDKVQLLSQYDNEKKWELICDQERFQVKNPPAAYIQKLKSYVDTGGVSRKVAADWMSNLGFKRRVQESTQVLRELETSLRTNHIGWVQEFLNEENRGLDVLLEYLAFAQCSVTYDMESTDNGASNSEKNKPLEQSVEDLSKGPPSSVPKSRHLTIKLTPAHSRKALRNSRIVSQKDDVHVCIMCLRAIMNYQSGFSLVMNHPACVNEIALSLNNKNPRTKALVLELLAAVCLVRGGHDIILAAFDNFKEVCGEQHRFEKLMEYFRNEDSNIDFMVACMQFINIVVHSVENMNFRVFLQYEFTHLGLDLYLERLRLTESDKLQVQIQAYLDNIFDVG

Chain of Cdc42 (1–179) (P60953 1-179): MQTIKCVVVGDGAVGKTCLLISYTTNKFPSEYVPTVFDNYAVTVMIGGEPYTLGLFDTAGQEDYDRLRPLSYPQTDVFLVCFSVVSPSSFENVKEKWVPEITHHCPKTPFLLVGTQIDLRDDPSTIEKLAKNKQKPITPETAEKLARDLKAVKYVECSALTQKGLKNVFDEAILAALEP
Chain of FMNL1NCC (FMNL1 1–458, GBD-FH3-CC) (O95466 1-458): as the sequence (O95466 1-458) above

stoichiometry N [1]: 2
Substance: FMNL1NCC (FMNL1 1–458, GBD-FH3-CC) (from UniProt O95466 1-458) (domain or fragment)

stoichiometry N [2]: 2
Substance: FMNL2 1–489 (N-terminal FMNL2 construct including the coiled coil domain) (from UniProt Q96PY5 1-489) (domain or fragment)

Kd [3]: 790 nM
dH [3]: -4.06 kcal/mol
stoichiometry N [3]: 1.05
Kd [4]: 2550 nM
dH [4]: -5.48 kcal/mol
stoichiometry N [4]: 0.37
Kd [5]: 6130 nM
dH [5]: -5.08 kcal/mol
stoichiometry N [5]: 0.28
Substance: Cdc42 (1–179) (from UniProt P60953 1-179) (domain or fragment)
